Test results reported in patent US20130224779A1, “METHOD FOR LARGE SCALE PREPARATION OF THE ACTIVE DOMAIN OF HUMAN PROTEIN TYROSINE PHOSPHATASE WITHOUT FUSION PROTEIN” (Korea Research Institute of Bioscience and Biotechnology, priority 2007, published 2013).

Assays:
[1] = Protease (trypsin or chymotrypsin) digestion of PTP active domain, SDS-PAGE; format: physicochemical; details: 37° C., 30 minutes, SDS-PAGE (FIG. 8)
Description: Based on the result of Example <1-3-1>, 20 μg of PTP active domain having low solubility and stability was serially diluted from 1:1 to 1:1,000, followed by reaction with trypsin (Sigma, USA) or chymotrypsin (Sigma, USA) at 37° C. for 30 minutes. SDS-PAGE was performed by the same manner as described in Example 3 to confirm digestion.

[2] = Solubility and stability of expressed domain by SDS-PAGE of supernatant and precipitate; format: physicochemical; details: expressed in E. coli, SDS-PAGE (FIG. 9)
Description: After cloning the PTP active domain determined in Example <1-2>, it was expressed in E. coli and purified therefrom. After storing for a while, a proper amount of protein solution was ultra-centrifuged to separate supernatant and precipitate. SDS-PAGE was performed with the precipitate by the same manner as described in Example 3 to investigate whether the precipitate contained the target protein, leading to the examination of solubility.
The protein band cut by protease obtained in Example <1-3-2> was transferred to PVDF membrane. The band was cut and treated with a reagent recognizing and digesting N-terminal, followed by HPLC stepwise to arrange amino acids. Mass spectrometry was performed with the band to calculate the mass exactly and select stable domains. The re-designed domains were tested for activity and stability by the same manner as described in Example 4.

| Molecule | stability with increase of protease concentration [1] | solubility [2] | stability [2] |
| --- | --- | --- | --- |
| T38: recombinant PTP active domain; unstable domain 636-979, stable domain 709-979, SEQ. ID. NO: 120 (protein, Amino acid sequence of PTP active domain T38) LAKEWQALCAYQAEPNTCATAQGEGNIKKNRHPDFLPYDHARIKLKVESSPSRSDYINASPIIEHDPRMPAYIATQGPLSHTIADFWQMVWESGCTVIVMLTPLVEDGVKQCDRYWPDEGASLYHVYEVNLVSEHIWCEDFLVRSFYLKNVQTQETRTLTQFHFLSWPAEGTPASTRPLLDFRRKVNKCYRGRSCPIIVHCSDGAGRTGTYILIDMVLNRMAKGVKEIDIAATLEHVRDQRPGLVRSKDQFEFALTAVAEEVNAILKALP | maintained | – | – |
| full length pk7: full length pk7 (MKP2), unstable domain amino acids 1-394 (protein, UniProt Q13115 1-394, looked up, full-length) MVTMEELREMDCSVLKRLMNRDENGGGAGGSGSHGTLGLPSGGKCLLLDCRPFLAHSAGYILGSVNVRCNTIVRRRAKGSVSLEQILPAEEEVRARLRSGLYSAVIVYDERSPRAESLREDSTVSLVVQALRRNAERTDICLLKGGYERFSSEYPEFCSKTKALAAIPPPVPPSATEPLDLGCSSCGTPLHDQGGPVEILPFLYLGSAYHAARRDMLDALGITALLNVSSDCPNHFEGHYQYKCIPVEDNHKADISSWFMEAIEYIDAVKDCRGRVLVHCQAGISRSATICLAYLMMKKRVRLEEAFEFVKQRRSIISPNFSFMGQLLQFESQVLATSCAAEAASPSGPLRERGKTPATPTSQFVFSFPVSVGVHSAPSSLPYLHSPITTSPSC | – | low | low |
| re-designed pk7: re-designed stable PTP active domain of pk7 (MKP2), amino acids 174-338, SEQ. ID. NO: 136 (protein, Amino acid sequence of PTP active domain pk7) SATEPLDLGCSSCGTPLHDQGGPVEILPFLYLGSAYHAARRDMLDALGITALLNVSSDCPNHFEGHYQYKCIPVEDNHKADISSWFMEAIEYIDAVKDCRGRVLVHCQAGISRSATICLAYLMMKKRVRLEEAFEFVKQRRSIISPNFSFMGQLLQFESQVLATS | – | high | high |
